Reference: article doi:10.1101/2025.07.27.667015

Key:
[1] = target: yMGL-ΔCTD (yMGL with the C-terminal residues 253-380 deleted) (Yarrowia lipolytica); assay: SEC + other: dynamic light scattering
[2] = target: Methionine γ-lyase from Yarrowia lipolytica (yMGL) (Yarrowia lipolytica); assay: crystal structure
[3] = target: Methionine γ-lyase from Yarrowia lipolytica (yMGL) (Yarrowia lipolytica); assay: SEC + other: dynamic light scattering

Substance	stoichiometry N [1]	stoichiometry N [2]	stoichiometry N [3]
yMGL-ΔCTD (yMGL with the C-terminal residues 253-380 deleted) (domain or fragment)	6	–	–
Methionine γ-lyase from Yarrowia lipolytica (yMGL) (enzyme)	–	2	4
